{"source": "patent US20240158448A1", "about": "(University of Pennsylvania, published 2024)", "binders": {"B1": {"name": "nS-FF, (VTELFREG-PEG5)2-K (peptide)", "peptide": "VTELFREG", "chain": "K", "modifications": "not fully specified; core Lys carrying one PEG5-peptide arm on each of its two amines; C-terminal amide; C-terminus joined through a PEG5 linker to one of the two amines of the core Lys"}, "B2": {"name": "nS-F-Cyc (peptide)", "peptide": "CVTELFREGC", "HELM": "PEPTIDE1{C.V.T.E.L.F.R.E.G.C.[am]}$PEPTIDE1,PEPTIDE1,1:R3-10:R3$$$V2.0; N-terminus assumed", "SMILES": "CC(C)C[C@@H]1NC(=O)[C@H](CCC(=O)O)NC(=O)[C@H]([C@@H](C)O)NC(=O)[C@H](C(C)C)NC(=O)[C@@H](N)CSSC[C@@H](C(N)=O)NC(=O)CNC(=O)[C@H](CCC(=O)O)NC(=O)[C@H](CCCNC(=N)N)NC(=O)[C@H](Cc2ccccc2)NC1=O"}}, "experiment_in_all_cases": "cell-based or functional assay", "key": {"[1]": {"molecular_target": "human SIRPα expressed on cells (PMA-differentiated THP-1 macrophages; A549 cells) (human, UniProt P78324 31-504)"}, "[2]": {"molecular_target": "T1, mouse SIRPα expressed on primary bone marrow derived macrophages (C57BL6/J) (mouse, UniProt P97797 32-513)", "T1 sequence (looked up)": "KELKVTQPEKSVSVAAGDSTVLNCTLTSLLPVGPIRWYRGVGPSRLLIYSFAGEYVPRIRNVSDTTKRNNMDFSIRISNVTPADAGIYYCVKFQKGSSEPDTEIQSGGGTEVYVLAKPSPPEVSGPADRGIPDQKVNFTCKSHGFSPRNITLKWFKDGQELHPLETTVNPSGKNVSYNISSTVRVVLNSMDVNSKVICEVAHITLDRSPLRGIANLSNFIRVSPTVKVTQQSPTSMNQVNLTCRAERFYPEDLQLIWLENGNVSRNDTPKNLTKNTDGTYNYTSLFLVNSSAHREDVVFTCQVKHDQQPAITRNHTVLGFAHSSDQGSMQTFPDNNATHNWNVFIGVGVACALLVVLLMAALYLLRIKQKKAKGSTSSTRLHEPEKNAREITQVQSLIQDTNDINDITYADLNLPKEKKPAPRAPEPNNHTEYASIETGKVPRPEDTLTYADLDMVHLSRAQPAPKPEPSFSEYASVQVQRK"}, "[3]": {"molecular_target": "T2, mouse SIRPα expressed on J774A.1 macrophages (mouse, UniProt P97797 32-513)", "T2 sequence (looked up)": "T1 sequence (looked up)"}}, "note": "Positions of bridges follow the written chain, without caps; N, C: chain ends. No end group written: not given here.", "data": [{"binder": "B1", "values": [{"measurement": "activity relative to nS-wt in phagocytosis of opsonized RBCs", "setting": "[1]", "result": "> 100", "unit": "fold"}, {"measurement": "increase in phagocytic macrophages relative to anti-CD47 on opRBC", "setting": "[1]", "result": "~10", "unit": "%"}]}, {"binder": "CVELTREGC-NH2 (disulfide 1-9; not fully specified)", "note": "[nS-Cyc (cyclic nano-Self peptide)]", "values": [{"measurement": "maximum phagocytosis of opsonized RBCs by THP-1 macrophages", "setting": "[1]", "result": "~25", "unit": "%"}, {"measurement": "maximum phagocytosis of opsonized B16 cells by mouse BMDMs", "setting": "[2]", "result": "~25", "unit": "%"}]}, {"binder": "VTELTREG-NH2", "note": "[nS-wt (nano-Self wild-type peptide)]", "values": [{"measurement": "fold decrease in effective activity in the mouse macrophage phagocytosis assay relative to the human assay", "setting": "[3]", "result": "~100", "unit": "fold"}]}, {"binder": "B2", "values": [{"measurement": "increase in THP-1 macrophage phagocytosis of opsonized RBCs relative to nS-wt", "setting": "[1]", "result": "~25", "unit": "%"}, {"measurement": "maximum phagocytosis of opsonized RBCs by THP-1 macrophages", "setting": "[1]", "result": "~25", "unit": "%"}, {"measurement": "maximum phagocytosis of opsonized B16 cells by mouse BMDMs", "setting": "[2]", "result": "~25", "unit": "%"}]}, {"binder": "VTELFREG-NH2", "note": "[nS-F]", "values": [{"measurement": "increase in THP-1 macrophage phagocytosis of opsonized RBCs relative to nS-wt", "setting": "[1]", "result": "~25", "unit": "%"}, {"measurement": "maximum phagocytosis of opsonized RBCs by THP-1 macrophages", "setting": "[1]", "result": "~25", "unit": "%"}, {"measurement": "maximum phagocytosis of opsonized B16 cells by mouse BMDMs", "setting": "[2]", "result": "~25", "unit": "%"}, {"measurement": "phagocytosis of opsonized RBCs by J774A.1 macrophages, relative to nS-X", "setting": "[3]", "result": 3, "unit": "fold"}]}]}
